These results are taken from patent US20240392020A1 (JIANGSU HENGRUI PHARMACEUTICALS, published 2024).

One experiment addresses T1, HJ-2-L2.
T1 construct: also called chain 3 of HJ-2
The experiment in a line: mass spectrometry of the product of four co-transfected chains of HJ-2; mispairing of heavy chain 2 with light chain 3.

A further experiment deals with T2, HJ-4-L2.
T2 construct: also called chain 3 of HJ-4
Description: mass spectrometry of the product of four co-transfected chains of HJ-4; mispairing of heavy chain 2 with light chain 3.

The target of a further experiment is T3, HJ-3-L1.
T3 construct: also called chain 3 of HJ-3
The experiment in a line: mass spectrometry of the product of four co-transfected chains of HJ-3; mispairing of heavy chain 2 with light chain 3.

In the next experiment the target is T4, HJ-1-L1.
T4 construct: also called chain 3 of HJ-1
The experiment in a line: mass spectrometry of the product of four co-transfected chains of HJ-1; mispairing of heavy chain 2 with light chain 3.

Experiment [1] concerns the target T5, HJ-3-H1 (heavy chain of H0, knob, CH1 replaced with T.10-L1).
T5 construct: single antibody chain, co-expressed
The experiment in a line: co-expression of three chains, mass spectrometry.

The next experiment concerns the target T6, Heavy chain of D0 (Homo sapiens (Human), UniProt P0DOX5 1-449 = IgG part).
T6 construct: single antibody chain, co-expressed
Description: co-expression in HEK293E cells, LC-MS for the mispaired molecule.

The target in experiment [2] is T7, human PDL1-his (human, UniProt Q9NZQ7 19-239).
T7 construct: bought; also called hPDL1
T7 sequence (Q9NZQ7 19-239 limits assumed): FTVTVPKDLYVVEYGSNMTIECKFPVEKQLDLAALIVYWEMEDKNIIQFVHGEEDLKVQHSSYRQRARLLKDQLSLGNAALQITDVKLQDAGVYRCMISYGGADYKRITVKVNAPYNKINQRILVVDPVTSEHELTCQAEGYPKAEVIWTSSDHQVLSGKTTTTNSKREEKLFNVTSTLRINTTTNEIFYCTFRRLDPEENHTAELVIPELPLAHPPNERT
The experiment in a line: SPR Biacore T200, antibody captured on Protein A chip. Background: Surface plasmon resonance follows binding to a sensor surface in real time, without labels.

Experiment [3] addresses T8, human TIGIT-his (human, UniProt Q495A1 22-141, limits assumed).
T8 construct: bought; also called hTIGIT
T8 sequence (looked up): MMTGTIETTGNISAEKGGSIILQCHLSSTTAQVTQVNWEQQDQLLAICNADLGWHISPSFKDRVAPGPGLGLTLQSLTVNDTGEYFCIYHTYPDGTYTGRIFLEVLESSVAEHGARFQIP
The description is as above.

Experiment [4] deals with T8, human TIGIT-his. Description: SPR Biacore T200, antibody captured, TIGIT injected after saturation with hPDL1.
The target in experiment [5] is T7, human PDL1-his. The experiment in a line: SPR Biacore T200, antibody captured, hPDL1 injected after saturation with TIGIT.
Experiment [6] deals with T9, Heavy chain of U0 (with a knob modification).
T9 construct: single antibody chain, co-expressed; also called B-H2
T9 sequence (heavy, as listed by the source): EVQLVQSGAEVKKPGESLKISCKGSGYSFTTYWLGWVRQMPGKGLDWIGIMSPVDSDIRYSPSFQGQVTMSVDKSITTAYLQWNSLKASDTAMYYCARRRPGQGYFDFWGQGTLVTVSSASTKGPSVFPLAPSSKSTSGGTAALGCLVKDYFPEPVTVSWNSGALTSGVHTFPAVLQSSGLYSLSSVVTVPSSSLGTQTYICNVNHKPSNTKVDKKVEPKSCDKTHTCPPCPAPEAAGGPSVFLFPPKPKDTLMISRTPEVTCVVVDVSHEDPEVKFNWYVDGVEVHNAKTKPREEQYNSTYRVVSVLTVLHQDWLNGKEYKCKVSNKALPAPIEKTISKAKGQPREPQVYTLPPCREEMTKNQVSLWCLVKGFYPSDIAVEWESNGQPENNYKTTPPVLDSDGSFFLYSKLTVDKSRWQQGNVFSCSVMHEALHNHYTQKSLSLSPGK
Description: co-expression (B/U-2), mass spectrometry.

In experiment [7] the target is T10, Heavy chain of B0 (with a hole modification).
T10 construct: single antibody chain, co-expressed; also called B-H1 of B/U-2
T10 sequence (heavy, as listed by the source): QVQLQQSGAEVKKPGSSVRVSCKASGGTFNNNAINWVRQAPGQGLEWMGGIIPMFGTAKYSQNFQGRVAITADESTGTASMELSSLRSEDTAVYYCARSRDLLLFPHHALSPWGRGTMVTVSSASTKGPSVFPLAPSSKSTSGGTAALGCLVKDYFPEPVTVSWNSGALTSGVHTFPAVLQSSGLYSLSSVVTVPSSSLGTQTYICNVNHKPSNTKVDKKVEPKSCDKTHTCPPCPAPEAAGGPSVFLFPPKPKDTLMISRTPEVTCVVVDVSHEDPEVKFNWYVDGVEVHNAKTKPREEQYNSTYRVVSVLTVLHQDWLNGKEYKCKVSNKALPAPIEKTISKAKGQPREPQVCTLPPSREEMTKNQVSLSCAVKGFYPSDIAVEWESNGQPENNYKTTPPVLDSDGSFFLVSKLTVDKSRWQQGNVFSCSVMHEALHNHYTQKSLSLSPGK
The experiment in a line: co-expression (B/U-2), mass spectrometry.

For orientation: Kd means the concentration at which binding is half-saturated. A low value points to higher affinity. The term koff denotes the rate constant with which the complex falls apart. High values mean fast dissociation, low ones slow dissociation. Broadly, the kon is the second-order rate constant of association. A higher kon goes with faster complex formation.

T1 sequence (light, as listed by the source limits assumed): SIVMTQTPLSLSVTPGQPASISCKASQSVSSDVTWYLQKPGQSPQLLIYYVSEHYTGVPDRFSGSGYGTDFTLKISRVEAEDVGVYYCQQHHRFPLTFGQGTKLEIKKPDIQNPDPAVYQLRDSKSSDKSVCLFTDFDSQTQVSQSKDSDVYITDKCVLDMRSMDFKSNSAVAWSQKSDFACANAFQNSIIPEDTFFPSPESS

B1: HJ-2-H1 (other)
heavy: EVQLVESGGGLVQPGGSLRLSCAASGFTFSHYYMAWVRQAPGKGLEWVTSISYEGDITYYGDSVKGRFTISRDNSKNTLYLQMNSLRAEDTATYYCASQTLRESFDYWGQGTLVTVSSASTKGPSVFPLAPSSKSTSGGTAALGCLVKDYFPEPVTVSWNSGALTSGVHTFPAVLQSSGLYSLSSVVTVPSSSLGTQTYICNVNHKPSNTKVDKKVEPKSCDKTHTCPPCPAPEAAGGPSVFLFPPKPKDTLMISRTPEVTCVVVDVSHEDPEVKFNWYVDGVEVHNAKTKPREEQYNSTYRVVSVLTVLHQDWLNGKEYKCKVSNKALPAPIEKTISKAKGQPREPQVCTLPPSREEMTKNQVSLSCAVKGFYPSDIAVEWESNGQPENNYKTTPPVLDSDGSFFLVSKLTVDKSRWQQGNVFSCSVMHEALHNHYTQKSLSLSPGKDYKDDDDK
notes: also called chain 2 of HJ-2
On to B1, for which the binding result with HJ-2-L2 is on record as “no binding”.

B2: HJ-4-H1 (other)
heavy: B1 heavy
notes: also called chain 2 of HJ-4
Consider B2, for which the binding result in the experiment with HJ-4-L2 is “no binding”.

B3: HJ-3-H2 (other)
heavy: EVQLVQSGAEVKKPGSSVKVSCKASGYTFSNYLIEWVRQAPGQGLEWIGVIDPGVGDTNYNENFKGRATLTADKSTSTAYIELSSLRSEDTAVYYCAREDNTGTAFDYWGQGTTVTVSSASTKGPSVFPLAPSSKSTSGGTAALGCLVKDYFPEPVTVSWNSGALTSGVHTFPAVLQSSGLYSLSSVVTVPSSSLGTQTYICNVNHKPSNTKVDKKVEPKSCDKTHTCPPCPAPEAAGGPSVFLFPPKPKDTLMISRTPEVTCVVVDVSHEDPEVKFNWYVDGVEVHNAKTKPREEQYNSTYRVVSVLTVLHQDWLNGKEYKCKVSNKALPAPIEKTISKAKGQPREPQVCTLPPSREEMTKNQVSLSCAVKGFYPSDIAVEWESNGQPENNYKTTPPVLDSDGSFFLVSKLTVDKSRWQQGNVFSCSVMHEALHNHYTQKSLSLSPGKDYKDDDDK
notes: also called chain 2 of HJ-3
Turning to B3, the binding result with HJ-3-L1 was “no binding”.

B4: HJ-1-H2 (other)
heavy: B3 heavy
notes: also called chain 2 of HJ-1
Turning to B4, in the experiment with HJ-1-L1, the binding result is reported as “no binding”.

B5: Light chain of J1 (other)
light: SIVMTQTPLSLSVTPGQPASISCKASQSVSSDVTWYLQKPGQSPQLLIYYVSEHYTGVPDRFSGSGYGTDFTLKISRVEAEDVGVYYCQQHHRFPLTFGQGTKLEIKRTVAAPSVFIFPPSDEQLKSGTASVVCLLNNFYPREAKVQWKVDNALQSGNSQESVTEQDSKDSTYSLSSTLTLSKADYEKHKVYACEVTHQGLSSPVTKSFNRGEC
notes: single antibody chain, co-expressed; also called HJ-1-L2; HJ-3-L2
As for B5, in experiment [1], the binding result is listed as “no binding”.

B6: Light chain of I3 (other)
light: DIQMTQSPSSLSASVGDRVTITCRASQSISNNLNWYQQKPGKAPKLLIYYTSRFHSGVPSRFSGSGSGTDFTFTISSLQPEDIATYYCQQEHTLPYTFGQGTKLEIKSGAPRFLTRPLAFVVSVGKDATLSSQIVGNPTPQVSWEKDKQPVTAGARFRLAQDGDLYRLKILDLQLSDSGQYVSRARNAIGEAFACLGLQVDAEA
notes: single antibody chain, co-expressed
With B6, in the experiment with Heavy chain of D0, the binding result is on record as “no binding”.

B7: P-O-T (bispecific antibody, human IgG1, kappa)
heavy: not shown
light 1: DIVLTQSPASLAVSPGQRATITCRASESVSIHGTHLMHWYQQKPGQPPKLLIYAASKLESGVPARFSGSGSGTDFTLTINPVEAEDTANYYCQQSFEDPLTFGQGTKLEIKGGGGSGIPPKIECLPIDISIDEGKVLTVASAFTGEPTPEVTWSTGGRKIHSQEQGRFHIENTDDLTTLIIKDVQKQDGGLYTLTLRNEFGSDSATVNIHIRSI
light 2: DIQMTQSPSSLSASVGDRVTITCRASENIYSYLAWYQQKPGKSPKLLIYNARTLAEGVPSRFSGSGSGTDFTLTISSLQPEDFATYYCQYHSGSPLPFGGGTKVEIKRTVAAPSVFIFPPSDEQLKSGTASVVCLLNNFYPREAKVQWKVDNALQSGNSQESVTEQDSKDSTYSLSSTLTLSKADYEKHKVYACEVTHQGLSSPVTKSFNRGEC
notes: also called anti-PDL1-TIGIT bispecific antibody in a (FabV)2-IgG form; PDL1-TIGIT bispecific antibody
Regarding B7, the Kd with human PDL1-his [2] stood at 0.0257 nM; with human TIGIT-his [3] it was 0.097 nM; with human TIGIT-his [4] it was 0.0954 nM; in the experiment with human PDL1-his [5], 0.0303 nM. Further, the koff was 9.53e-05 s⁻¹ with human PDL1-his [2], 0.000123 s⁻¹ in the experiment with human TIGIT-his [3], 0.00012 s⁻¹ with human TIGIT-his [4] and 8.12e-05 s⁻¹ in the experiment with human PDL1-his [5]. The kon stood at 3.71e+06 M⁻¹ s⁻¹ with human PDL1-his [2], 1.27e+06 M⁻¹ s⁻¹ with human TIGIT-his [3], 1.26e+06 M⁻¹ s⁻¹ with human TIGIT-his [4] and 2.68e+06 M⁻¹ s⁻¹ in the experiment with human PDL1-his [5].

B8: Chain formed by replacement of CL of light chain of B0 with O.20 (other)
light: SSELTQDPAVSVALGQTVRVTCQGDSLRSYYASWYQQKPGQAPVLVIYGKNNRPSGIPDRFSGSSSGNTASLTITGAQAEDEADYYCSSRDSSGNHWVFGGGTELTVLSGAPRFLTRPLAFVVSVGKDATLSSQIVGNPTPQVSWEKDKQPVTAGARFRLAQDGDLYRLKILDLQLSDSGQYVSRARNAIGEAFACLGLQVDAEA
notes: single antibody chain, co-expressed; also called B-L1 of B/U-1 and B/U-2
Take B8: the binding result in experiment [6] and in [7] was “no binding” each time.
